Results published in the supplement of paper PMC12042874.
± gives the uncertainty stated by the source.

Test: amyloid nucleation score (Sup35N fusion, yeast selection) (log enrichment); library NNK3; higher = more nucleation; inactive = no reads after selection
Procedure, shortened: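 In psi-negative yeast, Sup35N fusions carrying peptides of 20 random codons were induced with 100 μM copper sulfate for 24 hours. The cells then grew 7 days at 30°C on medium lacking adenine and uracil, and plasmid inserts from input and output were Illumina-sequenced, excluding sequences with under 100 input reads. Nucleation score is the DiMSum log enrichment of output over input reads, centred on the mode score of non-aggregating sequences.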

Row | Substance | amyloid nucleation score
1 | IAYDWCQVSVTNFMSRSLMH | -0.04 ± 0.75
2 | PLWAYKYVPGFYRVFKVCLM | inactive
3 | VGYTNLVFGDLLLFCMFNWD | 0.109 ± 0.45
4 | LSGKWNKMVCRLVTSKLIFE | inactive
5 | TVHTNLCAMLMFTGYF | inactive
6 | VLRTTECVQG | inactive
7 | TYPSEVYFIMFAMFSSTCWS | inactive
8 | VSYKKDCMQTSLRLVITF | inactive
9 | ISVLERLGYMFVSRHMLLVW | inactive
10 | GLEVLVISIGAWLSLTLSFQ | inactive
11 | NFENMSCSNTVNVLFIEPGA | 1.14 ± 0.096
12 | CWFKLMLASMIKENTLSTYG | inactive
13 | ACFVKY | inactive
14 | TCRITP | inactive
15 | ISVYHVLTHKL | 1.49 ± 0.12
16 | HFHSVIELVYG | inactive
17 | GKTLLTSKDGCV | inactive
18 | AYLCGANINL | inactive
19 | TIASVKLEFALPPSHLPLGV | inactive
20 | RCSDYHMR | inactive
21 | GYVSALMMIFYYHLWKKGPC | inactive
22 | GFLLFLAVWRDTIGIVLVVL | inactive
23 | PSTVTFRWFIVVSPLRHWFA | inactive

Row | Substance | amyloid nucleation score
24 | VWVLSA | inactive
25 | ISFSSES | inactive
26 | TCKCGSALK | 0.384 ± 0.21
27 | HSLHMKVCCWGSCEIFSMVR | inactive
28 | GKSTVGMI | inactive
29 | KFPWT | inactive
30 | RVMMSAACHLILCWNWPKWK | inactive
31 | EIRKQHCCHS | inactive
32 | TLMGLESVSVYFSVGFLSVY | inactive
33 | NISSTSFRMGNIIGNEFLVY | inactive
34 | PSSSYPKSLRINMAFSFLMC | 0.49 ± 0.53
35 | HSGETIYKVWMMGSRTEIAW | inactive
36 | VDTKFSISYTGKTC | inactive
37 | DGILTVCYEVVNWNSSSVLL | inactive
38 | AFIFGCHNGTFKYGKYTCRG | inactive
39 | QTMLIM | inactive
40 | QRNSCLDFMK | inactive
41 | VSHFSSRHKRTEVRSGSPQT | inactive
42 | NLIWTVHLVVTSVISDLCVG | inactive
43 | NESFDCPFAGLYRKQYIWQT | inactive
44 | ASLPVLPSNPDKSEGAKGHE | -0.681 ± 1.2
45 | TNSGGFRMVIYFFR | inactive
46 | KYVLSKI | inactive

Row | Substance | amyloid nucleation score
47 | NWDWADE | inactive
48 | VVDCLFLSEPCYVGFRWVIE | inactive
49 | KTWYWVFMLAVFRFIYLNMR | inactive
50 | NHSSYG | inactive
51 | KYFPVAQYGRIWVRRPRGQV | inactive
52 | ALSHITDLQFLYSIVFQAHM | -0.674 ± 1.3
53 | GSYSNAHTPQF | 0.695 ± 0.2
54 | IWSNTYPSIRSLWMSFGVVI | inactive
55 | HCGRTEKDGQLCCENLSGFS | inactive
56 | ISIFWSIEGSNYLHLILHQG | inactive
57 | VKRVKMLAYPRHFLLMMSGK | inactive
58 | LVSVGSIVTSLEFNTGCLWA | inactive
59 | VEYLFVNCWSTE | inactive
60 | RWIFLITILGVLNT | inactive
61 | SSYGSPIIVLNTHSTVGIRI | 1.59 ± 0.11
62 | MFVRYIAISYWYQLTWEFSV | inactive
63 | GCAGRSWTGYRVHAASV | inactive
64 | SPLRRCMCSFDDAKWWMCGE | 0.803 ± 0.25
65 | GPCFEVAVYYDATEMGKQSI | -0.507 ± 1.1
66 | LWYHWHNA | inactive
67 | TFLYFNVLRIHFVASS | inactive
68 | MDQMPKKYLVLAAAAVVRMV | inactive
69 | ALVLNRVLRLDVGVSSGCRL | inactive

Row | Substance | amyloid nucleation score
70 | IMCSGFFDTVKFGWSLLSFS | 0.521 ± 0.24
71 | YAGQDEFFMVTVYIKPNDLC | 1.85 ± 0.085
72 | IYYHIETSSAVASWYWRCAT | inactive
73 | YIQSNCEFMHPVCIIIFACV | 1.16 ± 0.11
74 | SRPILLLSFCFRCAIC | inactive
75 | YSIKNGYGFRQSWYKQVLKL | inactive
76 | MRFSKGNYLYMREGHKGFCG | inactive
77 | MWPYIMILGIVDTMWLLLSP | inactive
78 | VSHNSCGQTAESLNNFKTWS | inactive
79 | NYYINKSMVRSRWFCCLPLW | 2.34 ± 0.067
80 | CLTYRSG | inactive
81 | QAIGIRICSK | inactive
82 | SNVVSTS | inactive
83 | FAYLFPCMLLPRSLFAFRIN | inactive
84 | IFVCKRLMRGLVR | inactive
85 | FVQDFSTFTAGWCL | inactive
86 | YLVYNYFMRDHWGLSVYLSR | 0.641 ± 0.18
87 | VSMVPRNIWCEMFCQTHADI | 1.26 ± 0.1
88 | NKQNEVSRSCLSRCRYFGGD | inactive
89 | ICQQCWTVT | inactive
90 | CFPLSVK | inactive
91 | RYFSFELKLMLISELYVMAV | inactive
92 | SEVRSLKHVGLCIQSMGSAL | inactive

Row | Substance | amyloid nucleation score
93 | RILCRVRYM | inactive
94 | RWCVM | 0.14 ± 0.56
95 | KMQCPNYACGCKDCVYTNFY | inactive
96 | MLCDVSKVDLSRLLGAGVYD | inactive
97 | IFNRQFQKSIMRSWLNYESK | 0.864 ± 0.13
98 | SIPPRMRCFLGCFWSISWDA | inactive
99 | MDEVWFPSKGCDLAVRNCLM | inactive
100 | LLSVTCTG | inactive
101 | HFSMHITMLEFLTFNSARRV | 2.3 ± 0.075
102 | MFKITACIFNIAYSSWFFST | inactive
103 | VICGGNRLRSIQWTFWLWDN | inactive
104 | KIFVSFNKSKLEVHPPLKVI | inactive
105 | VMAHFWRGKLLRSYVDRWRG | inactive
106 | NERFERMKRKSVQLPLYVVM | -0.009 ± 0.53
107 | GTYPSKIKGFTLKGNLR | inactive
108 | TIACS | inactive
109 | LYWRSTGVSVWVRWVLYG | inactive
110 | RNKVKQTE | inactive
111 | VFLSSELSTLLVVYRLLGSG | inactive
112 | TPYILLG | inactive
113 | FVFIQSHYQNMRFGKF | inactive
114 | YYAFPLYKKSFYRIPTNVWA | inactive
115 | TYFTFSREVKMMVHTNCCLL | 0.594 ± 0.2

Row | Substance | amyloid nucleation score
116 | RITGALRAFGSRTFCASCVC | inactive
117 | ISLFFRICY | 0.397 ± 0.27
118 | ANVLKFIWAFVWASVALLWS | inactive
119 | ACKSGHLNSHKNGYYV | inactive
120 | THESATSYLISGFGIGFIWC | 1.49 ± 0.089
121 | FDRDWDMFFVRIVSQCGMLW | inactive
122 | CVVCCG | inactive
123 | FLGSLDFVSIKCQITHVRTS | inactive
124 | WLDRVY | inactive
125 | SVDDSFLYLYRYKGFCPNF | inactive
126 | YSEKDLIHRRIFVVNGRS | 1.13 ± 0.12
127 | CVASR | inactive
128 | PDHEMGSHLLV | inactive
129 | SCASAFKKVLVCSNCSGRFS | -0.133 ± 0.66
130 | NKKDHAYKWISVD | inactive
131 | SLVIAQARANRNILLLTVAR | inactive
132 | EPNRVLMKVQYRNSPCYTRR | inactive
133 | VSSTVGMV | 0.175 ± 0.29
134 | NIKGFRVDKYVETL | inactive
135 | KTKFVTSLNFTVHFKCWNCD | 1.51 ± 0.097
136 | FNLFRNLIMGNCSALMMDQP | inactive
137 | MVFCNGFGYGASNFGNNSAS | inactive
138 | NHYWQ | inactive

Row | Substance | amyloid nucleation score
139 | CPHMKLFRLLI | inactive
140 | GKDSCKTTLVSRRLLRLKAP | inactive
141 | HAVYL | inactive
142 | DSLIVCTVPHGLDVVSTRRV | inactive
143 | CTITNWHNKYC | inactive
144 | HGSLMATGICWLGIFVSEVA | inactive
145 | TCLWARSPVLEDFEYGLHGS | inactive
146 | WREAICLLICTIITVPWVNW | inactive
147 | AYSRIHSWRMVCKRSNNGVG | 1.41 ± 0.1
148 | NINRFLDLSSWIGYQNGYKA | inactive
149 | WYFPTQ | inactive
150 | GCKEL | inactive
151 | GWLKNNYSTYDTEKKFTATF | inactive
152 | FTNKNCFIGAVTRCEVRVWG | inactive
153 | HVFPVIAPYRLMLNLKWFVY | inactive
154 | WSPKTLLM | inactive
155 | LDRVSTVGSKNLFQRCCKIS | inactive
156 | IDKFVRFCIFSWCLMNGDVG | inactive
157 | RRDSDIDRALSLGYASRTTK | inactive
158 | IRSIM | inactive
159 | DHGSIRRMGELHWMQLR | inactive
160 | KLYNLFWNVETMVERLLLVA | inactive
